T1: Heat gamma
T1 chain: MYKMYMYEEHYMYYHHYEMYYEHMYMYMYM

B1: activated recombinant MMP1 (protein)
chain: FVLTEGNPRWEQTHLTYRIENYTPDLPRADVDHAIEKAFQLWSNVTPLTFTKVSEGQADIMISFVRGDHRDNSPFDGPGGNLAHAFQPGPGIGGDAHFDEDERWTNNFREYNLHRVAAHELGHSLGLSHSTDIGALMYPSYTFSGDVQLAQDDIDGIQAIYGRSQNPVQPIGPQTPKACDSKLTFDAITTIRGEVMFFKDRFYMRTNPFYPEVELNFISVFWPQLPNGLEAAYEFADRDEVRFFKGNKYWAVQGQNVLHGYPKDIYSSFGFPRTVKHIDAALSEENTGKTYFFVANKYWRYDEYKRSMDPGYPKMIAHDFPGIGHKVDAVFMKDGFFYFFHGTRQYKFDPKTKRILTLQKANSWFNCRKN
B2: activated recombinant MMP2 (protein)
chain: YNFFPRKPKWDKNQITYRIIGYTPDLDPETVDDAFARAFQVWSDVTPLRFSRIHDGEADIMINFGRWEHGDGYPFDGKDGLLAHAFAPGTGVGGDSHFDDDELWTLGEGQVVRVKYGNADGEYCKFPFLFNGKEYNSCTDTGRSDGFLWCSTTYNFEKDGKYGFCPHEALFTMGGNAEGQPCKFPFRFQGTSYDSCTTEGRTDGYRWCGTTEDYDRDKKYGFCPETAMSTVGGNSEGAPCVFPFTFLGNKYESCTSAGRSDGKMWCATTANYDDDRKWGFCPDQGYSLFLVAAHEFGHAMGLEHSQDPGALMAPIYTYTKNFRLSQDDIKGIQELYGASPDIDLGTGPTPTLGPVTPEICKQDIVFDGIAQIRGEIFFFKDRFIWRTVTPRDKPMGPLLVATFWPELPEKIDAVYEAPQEEKAVFFAGNEYWIYSASTLERGYPKPLTSLGLPPDVQRVDAAFNWSKNKKTYIFAGDKFWRYNEVKKKMDPGFPKLIADAWNAIPDNLDAVVDLQGGGHSYFFKGAYYLKLENQSLKSVKFGSIKSDWLGC

Molecular target: T1, Heat gamma

Protein | cleavage of Fluorogenic Peptide substrate I by 0.2 µg activated recombinant MMP1, 60 µg Heat Gamma | cleavage of Fluorogenic Peptide substrate I by 0.2 µg activated recombinant MMP2, 60 µg Heat Gamma
B1 | Heat gamma efficiently inhibits the MMP1 activity as indicated by a decrease in relative fluorescence | –
B2 | – | Heat gamma efficiently inhibits the MMP2 activity as indicated by a decrease in relative fluorescence
